Measured values published in the RNAGym collection of RNA variant scans (doi:10.1073/pnas.2313332121).

B1: TPR t1 (parent)
chain: GACCAAUCUGCCCUCAGAGCUCGAGAACAUCUUCGGAUGCAGAGGAGGCAGGCUUCGGUGGCGCGAUAGCGCCAACGUCCUCAACCUCCAAUGCAUCCCACCACAUGAUGAUGCCUGAAGAGCCUUGGUUUUUUG

Variants of: B1
Assay: polymerase ribozyme fitness, log enrichment relative to wild type (log ratio); higher = more active; in vitro selection for triplet polymerase activity
How it was run: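 Mutant libraries were PCR-built and transcribed for each subunit of a heterodimeric triplet polymerase ribozyme and selected for one round in triplicate at −7 °C, frozen, before gel excision of extended constructs and streptavidin-bead capture. Input and output libraries were Illumina-sequenced, keeping genotypes with ≥10 input reads and ≥1 read per output. Fitness is a logarithmic ratio of genotype to wild-type enrichment, in base 2, using inverse-variance-weighted replicate averages.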

Variant | polymerase ribozyme fitness (log ratio)
G93A G128U | -1.66
G42C C70A C104U | -4.4
C53A U106A G120U C123A | 0.599
U7A G60A C64U C124A U133C | -1.69
C56A A74C C98U | -0.178
C11G A95C C114G G120A | -6.61
C56A C88A | -0.627
G113A U126C | -0.83
G61A A83C | -0.418
G10U C40U G52U C64U | -1.92
A26G A105U | -3.51
C70G U78C G113C | -5.1
A46U C62U A91U A103G U106A C114U | -5.16
G39U A43U G52C C73G C94A C97G G110C | -7.55
A41U G61A C82G G120A U125G | -2.63
A74U A84U A91C C102G G113U C115G A118G G128U | -7.73
C11U C20U A27U | -5.92
G48C U78A A111U C123A U129A | -6.15
C22A G52A C124U | -4.37
G45C G71U A91G C101U G110A | -5.08
U33C G61C | -5.84
G10U G93U U129C | -1.98
C8U C22G C104G G117A U125G | -4.71
A2G C88U | -0.191

Variant | polymerase ribozyme fitness (log ratio)
U78C C85U U112A | 0.233
G44A A95C C123G U132A | -1.17
A6U G47A C53U C56A U59A A83U | -1.88
C11A G69A C82U | -3.91
G10U C28U G63A | -4.31
C8U A29U G47C C72U C102A | -5.13
U9A C98A C104U | -3.44
G44A C72A G110A G122A C124A | -3.56
C64G C114U | -6.35
A43U G113C | -3.56
C82A A103U | -6.11
G48A G113U G120U | -3.65
U38G A46U G110U | -4.8
G61U U106G | -0.849
G45A C70G | -3.56
A2G C86G U126C | -2.8
C40U U55C C70A U96A | -3.02
G77A U109C | -3
G71C C115A | -1.07
A6G U7C C12U G23U C70U C72A U87G | -6.73
C11A U112G | -1.43
G35A C53G C104U G117U C124G U126G | -5.98
C20U C40A G69C C94G G120U | -5.2
C15U C99U | -3.99

Variant | polymerase ribozyme fitness (log ratio)
G61U C79A G110U | -3.28
C40U C73U G113A | -1.98
G47C G120C G122A G128U | -3.66
A37U U112G | -1.14
U14A A37C A43U A90U U130G | -2.85
U14A A74G | -2.63
C88A U116G | -2.94
C11A C89A G93A A118G | -3.96
G71U G117U | -1.78
G45U A50U G58C C114G | -5.4
C11A C64U U106A A108U | -3.91
A27C A118U | -2.67
U9G C22A C34A C82U U130C | -6.39
C8A G47A C49G C70A U78C | -3.7
A6C C72U C73U C98G C115A U116G | -7.45
C73G C82A | -1.99
A68C A105C U112G | -6.56
G57U U112A | 1.54
C4A A84C C115U G135U | -3.92
C72G C102A A105C | -5.78
A95U U132A | -1.52
G47C A111G | -2.34
G61A C80U | -1.03
C31G G36U C49U U112G | -6.99

Variant | polymerase ribozyme fitness (log ratio)
G63C G120A | 0.11
C64A G120C U125G | -7.86
U116G A119G | 1.79
G39U C53G U87A A90G | -0.306
U7A A41G | 0.181
C3U G45A G61U A100U C124U | 0.286
G61U U78C G117U | -1.99
C22G G63U | -4.31
G36C C123U | -0.107
C8G C70U C115U | -2.38
C56U A95C C98U | -1.83
C8G G47A C64U C97A G120U | -4.09
A27U C56G G117U C124G | -4.92
U7G U14C A29G G42U U59A C123U | -3.3
C70U G120C | 0.206
C13A A18U G42U C123G | -0.827
C98U C114G | -5.02
C28G U92C C123A | -3.8
G42A G122A | -2.59
A41C C85U | -2.37
A27G C64U G77U C85A U130C | -4.3
G17U U67G C73A U78C G93U C98G U116C | -6.28
G10A G45C | -0.489
C13G G47A G63U U96G | -3.63

Variant | polymerase ribozyme fitness (log ratio)
G63U C101U C115U C124U | -3.55
U59A C80U | -0.689
G45U C49U C115G | -3.11
A41U G45U C53G U55G G63U | -6.72
A6G C12G A27U G113U U125A | -7.04
A26U C56U | -3.38
G47U U116G C124U | -2.14
C62A G69U | -3.2
C28G U81A U87C | -2.99
A105U U112C | -1.65
C22U G93U | -5.26
U7C C85G | -1.66
A24G C56U U125G | -2.02
G39U U55A G60A | -0.52
C40U G48U G52A A121U | -0.327
C15U C64U | -1.59
C11A G39A A105C | -3.91
A6U U9C G47A G63U | -1.85
C12A C80U A84U C89U A119G C123A | 0.231
C28G G120C | -1.89
G52C U132A | -1.09
U9C C13A A50G C72U A84U C89A C98U C102A | -6.4
C15G G93C | -4.1
C22U A41U C73G C99U | -6.26

Variant | polymerase ribozyme fitness (log ratio)
G48C G63A G113A U126C | -3.69
C8U U38A C70U | -1.62
G48A C64U A95U G110C C115A | -5.72
G47C U78A A105C G120C U130C | -3.11
U54G G63C C86G C114A U133C | -3.86
C73A C99U | -2.77
C40A U112A | -0.958
C72A C115G | -2.29
G57C C89G A90G | -1.31
A6U C70U U129C | -1.04
U54C C56G U131G | -1.34
A43U C53U C72A A91U A105G U106A U125G | -2.96
A6G A37U C56G | -1.11
G51C C56U C115U U131A | -4.93
G61U C85G G127C | -2.41
G47U U112C | -0.538
C53G C70G U81C C94G A121C | -7.53
A29G G60C U106A U109C G117A G127A | -5.43
C8U C11U A41G G45C G48U C73U C124A G128A | -5.7
C12U G36U C104U C123G | 0.937
U78A G120U | -0.295
A6U G36A G71U | -0.709
G63C C85G U87C | -2.82
C70U U96C C97U C104A | -5.19

Variant | polymerase ribozyme fitness (log ratio)
U9C C12A U21A C80A U87A G93U A121U U126G | -5.57
G10A G35A | -3.71
G42C C49G C72G | -3.71
C3A A43G C94G C114U | -3.66
C13A U59G C89G U106C | -3.02
U9A C53A U87G | 0.985
G10U C20U U32A U125G | -4.96
C3A A5U C11G G36U G45U | -1.02
C4A A90U | -2.78
C40U G113C | -2.55
G19U G93U | -4.25
C13A U21C C62G | -2.82
C8G C11G G36U | 0.581
A6U C8U C70A C101G | -3.42
G10C C49G G61A U81C G120C | -4.13
C13G C72U C94U C101G | -4.88
U78C A84C G113U G128A | -4.29
C56A G63A | -2.26
G25C C70U C73G A121G U133G | -7.65
A18C C49A G60U U106A A111C | -5.37
C53A C72U C85U G122A | -0.784
C104U G128C | -1.84
C62A C79A C115A G127A | -3.94
